T1: GST-PIF5 bHLH domain (Arabidopsis thaliana, UniProt Q84LH8 259-310)
T1 sequence: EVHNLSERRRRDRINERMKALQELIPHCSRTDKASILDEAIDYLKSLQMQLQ


Molecular target: T1, GST-PIF5 bHLH domain
Assay: EMSA; Beyotime EMSA kit binding buffer (composition not stated), 20 min, room temperature, 5% native PAGE; 50x and 100x unlabeled competitor
Conditions: protein: recombinant, tags: N-terminal GST (pGEX-4T-1), chain copies: 2, label: biotin

Row | Binder | binding result (blunt) | binding result (60 nt strands)
1 | MIR156F probe (E05/E06) (dsDNA) DNA 1: AACAAACCCCATTACGACACGTGACAGGCTGGGCATTCTCCACATGCTTTCTTGCCGAAA DNA 2: TTTCGGCAAGAAAGCATGTGGAGAATGCCCAGCCTGTCACGTGTCGTAATGGGGTTTGTT | binds | –
2 | MIR156F mutant probe (E07/E08) (dsDNA) DNA 1: AACAAACCCCATTACGATGACCTACAGGCTGGGCATTCTCCACATGCTTTCTTGCCGAAA DNA 2: TTTCGGCAAGAAAGCATGTGGAGAATGCCCAGCCTGTTGACCTTCGTAATGGGGTTTGTT | – | no binding
3 | MIR156E mutant probe (E03/E04) (dsDNA) DNA 1: CATATTCGTTCCCACTGACCTTCTCCTCAGGGGCTGACTGACCTATTCCCACGCCGAAAG DNA 2: CTTTCGGCGTGGGAATAGGTCAGTCAGCCCCTGAGGAGAAGGTCAGTGGGAACGAATATG | no binding | –
4 | MIR156E probe (E01/E02) (dsDNA) DNA 1: CATATTCGTTCCCACCACGTGTCTCCTCAGGGGCTGACCACGTGATTCCCACGCCGAAAG DNA 2: CTTTCGGCGTGGGAATCACGTGGTCAGCCCCTGAGGAGACACGTGGTGGGAACGAATATG | binds | –
